# Tests used:
# [1] = biological target: T1, human VISTA on cells (human) (UniProt Q9H7M9); test: flow cytometry, AF488-labelled control antibody on human monocytes, MFI normalised to INX200 at 0 min
# T1 sequence: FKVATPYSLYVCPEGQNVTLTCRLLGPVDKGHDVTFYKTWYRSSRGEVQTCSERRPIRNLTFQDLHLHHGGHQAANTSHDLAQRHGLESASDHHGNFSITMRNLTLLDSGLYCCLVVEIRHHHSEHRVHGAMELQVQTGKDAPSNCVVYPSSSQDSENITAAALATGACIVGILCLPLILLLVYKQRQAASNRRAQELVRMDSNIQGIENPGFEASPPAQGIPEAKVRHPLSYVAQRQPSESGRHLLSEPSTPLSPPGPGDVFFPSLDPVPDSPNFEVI
# [2] = biological target: CD163 on human cells (human) (UniProt Q86VB7); test: flow cytometry with quantification beads, CD14+ monocytes of human PBMC, n=5 donors (one outlier donor)
# [3] = biological target: CD163 on human cells (human) (UniProt Q86VB7); test: flow cytometry with quantification beads, CD14+ monocytes in human whole blood, n=3 donors
# Sequence of CD163 on human cells (human) (Q86VB7 42-1156): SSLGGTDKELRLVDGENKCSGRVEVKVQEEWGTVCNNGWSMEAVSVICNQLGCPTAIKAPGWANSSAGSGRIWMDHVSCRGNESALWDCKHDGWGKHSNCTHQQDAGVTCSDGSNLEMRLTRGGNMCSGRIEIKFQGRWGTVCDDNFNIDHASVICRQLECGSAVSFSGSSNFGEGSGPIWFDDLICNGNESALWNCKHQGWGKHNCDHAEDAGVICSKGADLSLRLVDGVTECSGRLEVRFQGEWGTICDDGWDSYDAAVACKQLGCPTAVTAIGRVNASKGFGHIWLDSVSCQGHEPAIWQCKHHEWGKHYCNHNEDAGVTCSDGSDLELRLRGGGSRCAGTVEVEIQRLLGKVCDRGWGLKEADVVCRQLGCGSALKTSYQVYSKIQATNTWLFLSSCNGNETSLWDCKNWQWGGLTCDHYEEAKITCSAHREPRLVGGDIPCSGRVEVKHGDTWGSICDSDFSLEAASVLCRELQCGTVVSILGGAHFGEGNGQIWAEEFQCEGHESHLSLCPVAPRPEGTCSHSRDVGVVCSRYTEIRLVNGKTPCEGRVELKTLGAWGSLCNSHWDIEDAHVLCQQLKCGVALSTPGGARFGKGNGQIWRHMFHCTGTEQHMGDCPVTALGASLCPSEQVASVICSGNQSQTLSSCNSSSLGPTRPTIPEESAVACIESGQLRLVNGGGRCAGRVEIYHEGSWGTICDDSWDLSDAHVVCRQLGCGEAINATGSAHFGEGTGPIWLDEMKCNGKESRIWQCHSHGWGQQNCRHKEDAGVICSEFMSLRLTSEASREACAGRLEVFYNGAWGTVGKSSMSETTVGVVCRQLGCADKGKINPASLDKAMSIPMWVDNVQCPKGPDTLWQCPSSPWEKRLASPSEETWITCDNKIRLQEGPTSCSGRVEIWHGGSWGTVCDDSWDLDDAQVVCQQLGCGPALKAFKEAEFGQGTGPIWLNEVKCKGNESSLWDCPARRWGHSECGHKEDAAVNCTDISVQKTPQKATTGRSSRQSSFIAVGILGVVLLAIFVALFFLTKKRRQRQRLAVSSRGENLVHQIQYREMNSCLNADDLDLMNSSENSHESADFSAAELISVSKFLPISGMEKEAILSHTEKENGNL
Substance,nonspecific signal at 0 min relative to INX200 (% of MFI) [1],antibody binding capacity (ABC) (ABC (molecules per cell)) [2],antibody binding capacity (ABC) [3]
Human IgG1si (antibody),5.9%,,
CD163 Alexa Fluor 647 clone GHI/61 (antibody),,36700,13100 molecules
